How the values were obtained:
[1] = target: T1, GPC3 protein (Acrobiosystems, cat #GP3-H52H4) (UniProt P51654 25-559); experiment: ELISA, GPC3 protein coated at 100 ng/well, 100 µl hybridoma culture, anti-mIgG-HRP
T1 construct: Bought protein coated on the ELISA plate at 100 ng/well; also called Glypican 3; GPC3 antigen
Procedure: First, in order to encode the GPC3 peptide, GPC3 protein (Acrobiosystems, cat #GP3-H52H4) was dispensed into a 96-well plate at an amount of […] and reacted overnight at 4° C. Then, after treatment with 1 X PBST containing 3% BSA, it was blocked for 30 minutes at room temperature.
100 μl of hybridoma cell culture of each clone producing 10E9, 8B2, 7C6, 7B9, 5E11 or 1A8 antibody was treated in each well, reacted at room temperature for 2 hours, and then washed three times with 1 X PBST. The secondary antibody ([…], 1:10,000) was treated and reacted at room temperature for 30 minutes, washed three times with 1 X PBST, and then treated with TMB for color development and reacted at room temperature for 5 minutes. Finally, the reaction was terminated by treatment with a stop solution of 1N H2SO 4, and then the absorbance was measured at 450 nm.

[2] = target: T2, GPC3 expressed on hepatoma cell line HepG2 (human, UniProt P51654 25-554); experiment: flow cytometry on HepG2 cells, 1 µg antibody, PE anti-mouse IgG secondary; mean fluorescence
T2 construct: whole, on cells; also called GPC3-expressing tumor cells (HepG2); cells expressing GPC3
T2 sequence (P51654 25-554 limits assumed): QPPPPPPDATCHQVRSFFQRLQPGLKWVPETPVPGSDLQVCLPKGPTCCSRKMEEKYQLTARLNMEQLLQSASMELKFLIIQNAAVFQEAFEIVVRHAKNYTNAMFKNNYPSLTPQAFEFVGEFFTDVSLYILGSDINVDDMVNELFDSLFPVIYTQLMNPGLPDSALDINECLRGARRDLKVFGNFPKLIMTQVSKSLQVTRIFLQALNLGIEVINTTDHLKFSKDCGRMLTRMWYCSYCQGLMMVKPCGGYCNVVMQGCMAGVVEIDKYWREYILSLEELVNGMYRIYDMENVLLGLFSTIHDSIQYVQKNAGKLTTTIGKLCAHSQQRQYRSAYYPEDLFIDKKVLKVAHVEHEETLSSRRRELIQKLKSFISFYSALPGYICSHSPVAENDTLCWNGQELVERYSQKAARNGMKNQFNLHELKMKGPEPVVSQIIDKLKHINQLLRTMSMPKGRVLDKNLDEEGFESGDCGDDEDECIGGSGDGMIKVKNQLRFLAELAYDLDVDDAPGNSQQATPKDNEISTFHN
Procedure: (§1) First, hepatoma cell line HepG2 expressing GPC3 was reacted with 1 μg of each of 10E9, 8B2, 7C6, 7B9, 5E11, and 1A8 antibodies for 30 minutes, and then, after staining the surface with a secondary antibody, it was measured by flow cytometry.
(§2) GPC3 antibody (Sino biology Glypican3 APC cat #100393-R024-A, 10 u.1) was used as a positive control, and PE-conjugated anti-mouse IgG antibody (PE-conjugated goat anti-mouse IgG; Biolegend Inc., cat #405307, USA, 5 μl) was used as a secondary antibody.

[3] = target: T2, GPC3 expressed on hepatoma cell line …; experiment: flow cytometry on HepG2 cells, 1 µg antibody, PE anti-mouse IgG secondary; median fluorescence
Procedure: as §1, §2

T1 sequence (P51654 25-559 limits assumed): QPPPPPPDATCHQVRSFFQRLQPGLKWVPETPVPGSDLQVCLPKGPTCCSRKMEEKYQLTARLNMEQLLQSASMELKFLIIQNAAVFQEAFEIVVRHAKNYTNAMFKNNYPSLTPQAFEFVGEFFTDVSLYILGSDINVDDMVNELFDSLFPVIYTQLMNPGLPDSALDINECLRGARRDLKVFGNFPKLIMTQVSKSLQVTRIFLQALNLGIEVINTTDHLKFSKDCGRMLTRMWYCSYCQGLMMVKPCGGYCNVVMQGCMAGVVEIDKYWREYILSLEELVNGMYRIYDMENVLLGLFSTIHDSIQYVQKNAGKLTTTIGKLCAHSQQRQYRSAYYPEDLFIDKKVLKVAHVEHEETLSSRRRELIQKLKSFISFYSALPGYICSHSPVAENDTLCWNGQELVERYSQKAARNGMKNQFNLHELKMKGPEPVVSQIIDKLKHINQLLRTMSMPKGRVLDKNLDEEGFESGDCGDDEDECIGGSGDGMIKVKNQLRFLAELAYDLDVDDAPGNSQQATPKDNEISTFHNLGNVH

Binder	OD450 measurement [1] [OD450]	Mean [2]	Median [3]
5E11 antibody (antibody, V domains shown, Mouse hybridoma monoclonal antibody, detected with anti-mouse IgG) VH: QVQLKQSGAELMKPGASVKISCKATGYTFSRYWIEWVKQRPGHGLEWIGEILPGSGSTSYNEKFKGKATFTADTSSNTAYMQLSSLTSEDSAVYYCARSARATYYFDYWGQGTTLTVSS VL: DIQMTQTTSSLSASLGDRVTISCWASQDISNYLNWYQQKPDGTVKLLIYYTSTLHSGVPSRFSGSGSGTDYSLTISNLEQEDIATYFCQQGNALPYTFGGGTKLEIK	0.942	52600	40200
1A8 antibody (antibody, V domains shown, Mouse hybridoma monoclonal antibody, detected with anti-mouse IgG) VH: QVQLQQPGSELVRPGASVKLSCKASGYTFTSYWMHWVKQRHGQGLEWIGNIYPGSGSTNYDEKFKSKGTLTVDTSSRTAYMHLSSLTSEDSAVYYCTRGHYDYAMDYWGQGTSVTVSS VL: DIVMTQSPSSLSASLGDTITITCHASQNINVWLSWYQQKPGNIPKLLIYKTSNLHTGVPSRFSGSGSGTGFTLTISSLQPEDIATYYCQQGQSYPWTFGGGTKLEIK	2.65	36600	29000
7B9 antibody (antibody, V domains shown, Mouse hybridoma monoclonal antibody, detected with anti-mouse IgG) VH: not shown VL: DIVMTQSPAIMSASPGEKVTMTCRASSSVSSSYLHWYQQKSGASPKLWIYSTSKLASGVPARFSGSGSGTSYSLTISSVEAEDAATYYCQQYSGYPLITFGAGTKVELK	2.54	27300	22000

Other lines, results leading:

OD450 measurement [1] [OD450]	Mean [2]	Median [3]	Binder
2.32	33000	25200	10E9 antibody (antibody, V domains shown, Mouse hybridoma monoclonal antibody, detected with anti-mouse IgG; Used as hybridoma culture supernatant in the ELISA) VH: EVQLEESGTVLARPGASVKMSCKASGYTFTSYWMHWIKQRPGQGLEWIGAIYPGNSDTSYNQKFKGKAKLTAVTSTSTAYMELSSLTNEDSAVYYCTRGEYDYVLAYWGQGTLVTVSA VL: DIVMTQSPATLSVTPGDSVSLSCRASQSISNNLHWYQQKSHESPRLLIKFASQSISGIPSRFSGSGSGTDFTLSINSVETEDFGMYFCQQSNSWPHMYTFGGGTKLEIK
1.01	40000	31400	8B2 antibody (antibody, V domains shown, Mouse hybridoma monoclonal antibody, detected with anti-mouse IgG) VH: QVQLQQPGAELVKPGASVKMSCKASGYTFTSYNMHWVKQTPGQGLEWIGAIYPGNGYTSYNQKFKGKATLTADKSSSTAYMQLSSLTSEDSAVYYCARGGGPFAYWGQGTLVTVSA VL: DIVMTQSHKFMSTSVGDRVSITCKASQDVGTAVAWYQQKPGQSPKLLIYWPSTRHTGVPDRFTGSGSGTDFTLTISNVQSEDLADYFCQQYSSYPFTFGSGTKLEIK
2.88	81400	61800	7C6 antibody (antibody, V domains shown, Mouse hybridoma monoclonal antibody, detected with anti-mouse IgG) VH: QVQLQQPGAELVKPGASVKLSCKASGYTFTTYYMYWVKQRPGQGLEWIGEINPSNGGTNFNEKFKSKATLTVDKSSSTAYMQLSSLTSEDSAVYYCTTFAYWGQGTLVTVSA VL: DIVMTQSPSSLSASLGGKVTITCKASQDINKYIVWYQHKPGKGPRLLIHYTSILQPGIPSRFSGSGSGRDYSFSISNLEPEDIATYYCLQYDNLWTFGGGTKLEIK
